The target of assay [1] is T1, purified extracellular domain of human CD33^ΔE2 with C-terminal His and Avi tags (human, UniProt P20138 18-259).
T1 construct: extracellular domain; also called CD33^ΔE2 ectodomain; not shown: C-terminal His and Avi tags
Briefly: SPR (Carterra), antibody or hybridoma supernatant captured on a protein A/G lawn, CD33ΔE2 antigen in solution. An excerpt:
(§1) FIG. 8. A kinetic profile was established from purified anti-CD33 antibodies and hybridoma supernatants by use of surface plasmon resonance technology (SPR) from the Carterra instrument. SPR is a great way to estimate the kinetic rate constants of binding interactions, of which can fit to a 1:1 Langmuir binding model to determine the on-rate (Kₒₙ) and off-rate (Koff). Both of these rate parameters allow for the calculation of the dissociation rate constant (Kd), referred to as binding affinity. The antibody clones were captured as an array on a protein A/G lawn, which was immobilized to a HC30M chip. The first kinetic experiment used a CD33^FL antigen which started at a concentration of 2 μM preceding a 4-fold titration to 2 nM. Following 10 HBSTE buffer blanks, 6 injections from low to high concentrations were subsequently flowed over the array to assess kinetics of each clone printed to the array, 1-min baseline, 5-min association, 10-min dissociation. The chip was then regenerated with 0.85% phosphoric acid pH 1.7 for a fresh reprint of the same array of clones to the protein A/G lawn, in case any lingering antigen stayed bound to the array preventing an interaction with the 2nd antigen of interest, of which CD33^ΔE2 flowed over the array of antibodies. […]

Assay [2] addresses T2, purified extracellular domain of human CD33^FL with C-terminal His and Avi tags (human, UniProt P20138 18-259).
T2 construct: also called CD33^FL ectodomain; CD33^FL antigen; not shown: C-terminal His and Avi tags
Briefly: SPR (Carterra), antibody captured on a protein A/G lawn, CD33FL antigen in solution; column 'CD33FL kD (nM), 1 µg/mL' (purified antibody). From the text:
(§2) FIG. 8. A kinetic profile was established from purified anti-CD33 antibodies and hybridoma supernatants by use of surface plasmon resonance technology (SPR) from the Carterra instrument. SPR is a great way to estimate the kinetic rate constants of binding interactions, of which can fit to a 1:1 Langmuir binding model to determine the on-rate (Kₒₙ) and off-rate (Koff). Both of these rate parameters allow for the calculation of the dissociation rate constant (Kd), referred to as binding affinity. The antibody clones were captured as an array on a protein A/G lawn, which was immobilized to a HC30M chip. The first kinetic experiment used a CD33^FL antigen which started at a concentration of 2 μM preceding a 4-fold titration to 2 nM. Following 10 HBSTE buffer blanks, 6 injections from low to high concentrations were subsequently flowed over the array to assess kinetics of each clone printed to the array, 1-min baseline, 5-min association, 10-min dissociation. The chip was then regenerated with 0.85% phosphoric acid pH 1.7 for a fresh reprint of the same array of clones to the protein A/G lawn, in case any lingering antigen stayed bound to the array preventing an interaction with the 2nd antigen of interest, of which CD33^ΔE2 flowed over the array of antibodies. Carterra kinetic software was used to process the data to fit the raw data to kinetic curves for each concentration of antigen injected over the array.

Assay [3] has as its target T2, purified extracellular domain of human …. Briefly: SPR (Biacore); column 'CD33FL Biacore kD (nM)'.
The target is the same in assay [4]. Briefly: SPR (Carterra), antibody captured on a protein A/G lawn, CD33FL antigen in solution; column 'CD33FL kD (nM), 4 µg/mL' (purified antibody).
From the text: as §2

Assay [5] addresses T3, human full-length CD33 (CD33^FL) on cells (human, UniProt P20138 18-364).
T3 construct: Used for engineered REH/ML-1 sublines overexpressing CD33^FL and for endogenous CD33 on parental AML cell lines; also called Siglec-3
Description: flow cytometry, murine antibody, control = secondary antibody only; REH cells expressing CD33FL.

Assay [6] concerns the target T3, human full-length CD33 (CD33^FL) on …. Described as above. This is another data set of the same source.
For assay [7], the target named is T1, purified extracellular domain of human …. Briefly: SPR (Carterra), antibody captured on a protein A/G lawn, CD33ΔE2 antigen in solution; column 'CD33ΔE2 kD (nM), 1 µg/mL' (purified antibody).
From the text: as §1

Assay [8] has the same target. Description: SPR, Biacore T100, 25 C; 1H7 captured on anti-mouse IgG, purified CD33^ΔE2 ectodomain as analyte; target CD33^ΔE2 (lacking V-set domain). Here is the method: (§3) FIG. 9. SPR assessment of purified extracellular domains from CD33^FL or CD33^ΔE2 binding to captured 1H7. Black lines are data and gray lines are the model fits. SPR experiments were performed at 25° C. on a Biacore T100 (Cytiva) using a running buffer of 10 mM HEPES, pH 7.4, 150 mM NaCl, 3 mM EDTA, 0.05% surfactant P20 with 0.1 mg/mL bovine serum albumin. Rabbit anti-mouse IgG was amine coupled to 2 flow cells of a Series S CM5 chip (7300 RUs). 1H7 at 0.2 μg/mL was injected at 10 μL/min over 1 flow cell of immobilized anti-mouse IgG for either 2 mins or 5 mins to capture 94 or 163 RUs of antibody for the CD33^FL and CD33^ΔE2 binding experiments, respectively. Purified ectodomains for CD33^FL and CD33^ΔE2 (engineered with C-terminal His and Avi tags) were run as concentration series at 35 μL/min over both the captured antibody and anti-mouse IgG alone (reference) surfaces. CD33^FL was injected for 10 mins and allowed to dissociate for 15 mins. CD33^ΔE2 was injected for 7 mins and dissociated for 7 mins. Ectodomain concentrations (serial 2-fold dilutions starting at 75 nM for CD33^FL and 2 μM for CD33^ΔE2) were run in duplicate, randomized, and included a buffer blank every 4th injection. The CM5 chip was regenerated with 10 mM glycine, pH 1.7 for 3 minutes at 20 μL/min and 1H7 recaptured prior to each CD33 injection. Data was double referenced and analyzed in BiaEval 2.0.4.

The target is the same in assay [9]. Briefly: SPR (Carterra), antibody captured on a protein A/G lawn, CD33ΔE2 antigen in solution; column 'CD33ΔE2 kD (nM), 4 µg/mL' (purified antibody).
From the text: as §1

Assay [10] addresses T4, artificial CD33 with deletion of exons 3 and 4, lacking the C2-set domain (CD33^ΔE3-4), on cells (human, UniProt P20138 1-364).
T4 construct: it probably still carries the CD33 signal peptide (aa 1-17), which is not part of the protein on cells; also called CD33 V-set construct (exon 3 and 4 deleted)
Description: flow cytometry on engineered cells.

Assay [11] concerns the target T2, purified extracellular domain of human …. Description: SPR, Biacore T100, 25 C; 1H7 captured on anti-mouse IgG, purified CD33^FL ectodomain as analyte; target CD33^FL (full-length ectodomain). Here is the method: as §3
Assay [12] has as its target T3, human full-length CD33 (CD33^FL) on …. Description: flow cytometry, murine antibody, control = secondary antibody only; ML-1 parental cells (endogenous CD33) and REH cells expressing CD33FL. In general terms: In flow cytometry, cells or beads pass a laser one at a time.

The text below walks through data of patent publication US20230190810A1 (FRED HUTCHINSON CANCER CENTER, published 2023).

T2 sequence (P20138 18-259): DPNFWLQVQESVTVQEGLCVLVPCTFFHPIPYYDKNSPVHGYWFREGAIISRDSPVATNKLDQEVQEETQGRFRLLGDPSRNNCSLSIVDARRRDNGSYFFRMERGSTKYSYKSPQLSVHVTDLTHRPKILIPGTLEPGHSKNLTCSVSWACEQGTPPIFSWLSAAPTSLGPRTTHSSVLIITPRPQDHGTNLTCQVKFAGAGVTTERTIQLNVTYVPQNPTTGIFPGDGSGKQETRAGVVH
T1 sequence (P20138 140-259 limits assumed, stated change not applied): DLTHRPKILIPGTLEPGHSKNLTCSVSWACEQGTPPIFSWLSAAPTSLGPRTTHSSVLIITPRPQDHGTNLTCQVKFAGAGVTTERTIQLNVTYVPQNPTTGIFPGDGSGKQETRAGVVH
T3 sequence (P20138 18-364): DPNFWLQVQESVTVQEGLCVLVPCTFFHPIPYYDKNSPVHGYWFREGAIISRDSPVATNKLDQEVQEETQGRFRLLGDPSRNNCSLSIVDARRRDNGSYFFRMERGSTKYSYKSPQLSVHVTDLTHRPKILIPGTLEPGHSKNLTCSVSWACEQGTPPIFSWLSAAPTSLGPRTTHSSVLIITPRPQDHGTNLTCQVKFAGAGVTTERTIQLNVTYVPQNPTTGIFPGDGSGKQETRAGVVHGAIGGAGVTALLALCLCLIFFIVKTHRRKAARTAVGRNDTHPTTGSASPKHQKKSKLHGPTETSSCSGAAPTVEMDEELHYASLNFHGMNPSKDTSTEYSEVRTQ
T4 sequence (P20138 other isoform, or with tags, fused parts or gaps mutant limits assumed): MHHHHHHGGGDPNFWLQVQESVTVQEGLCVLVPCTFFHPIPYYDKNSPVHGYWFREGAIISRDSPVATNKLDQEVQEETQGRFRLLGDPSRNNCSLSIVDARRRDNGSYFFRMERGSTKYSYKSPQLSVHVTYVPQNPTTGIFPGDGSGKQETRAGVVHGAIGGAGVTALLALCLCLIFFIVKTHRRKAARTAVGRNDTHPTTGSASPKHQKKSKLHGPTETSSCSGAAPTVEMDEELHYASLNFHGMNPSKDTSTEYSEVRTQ

B1: 5D12 antibody (murine CD33^V-set antibody) (antibody, V domains shown)
VH: QVQLQQSGAEVVKPGASVKISCRASGYAFSNYWMNWVKQRPGKGLEWIGQIYPGNFNTDYNGQFKGKATLTVDKSSNTAYMQLSSLTSEDSAVYFCARFFDFGAYFTLDYWGQGTSVTVSS
VL: DIKMTQSPSSIYASLGERVTINCKASQDIKSYLSWYQQKPWKSPKTLIYYATTLADGVPSRFSGSGSGQDYSLTISSLESDDTATYYCLHHGESPWTFGEGTKLEIK
notes: Murine hybridoma antibody
B1: in assay [1], the binding result was “no binding”. Moreover, the results for the Kd in assay [2], in assay [3] and in [4] were 2.3 nM, 0.122 nM and 1.1 nM, respectively.

B2: 8F5 antibody (murine CD33^V-set antibody) (antibody, V domains shown)
VH: EVKLVESGGGLVQPGGSLKLSCAASGFTFSDFYMYWVRQTPEKRLEWVAFISNAGVTTYYPDTVEGRFTISRDNAKNTLYLQMSRLMSEDTAMYYCTKSDYDGAWFPYWGQGTLVTVS
VL: DIVMSQSPSSLPVSVGEKVTLSCKSSQSLLYSRNQYNFLAWYQQRPGQSPKLLIYWASTRESGVPDRFTGSGSGTDFTLTISSVKAEDLAVYYCQQYYSYPYTFGGGTKLEIK
notes: Murine hybridoma antibody
As for B2, in assay [1], the binding result is “no binding”. In addition, the Kd in assay [2] was 11 nM; in assay [3], 8 nM; in assay [4], 6.1 nM.

B3: 13E11 (antibody, V domains shown)
VH: KVQLQQSGAELVKPGASVKLSCKASGYTFTDYTLHWLKQRSGQGLEWIGWFYPTSGSINYNERFKDKATLTADKSSSTVYMELSRLTSVDSAVYFCARHKFGFDYWGQGTTLTVSS
VL: DIVLTQSPVSLAVSLGQRATISCKASHGVEYAGAHYMNWYQQKPGQPPKLLIYAASNLGSGIPPRFSGSGSGTDFTLNIHPVEEEDSATYYCQQSNEDPRTFGGGTKLEIK
notes: also called 13E11 antibody; murine CD33^C2-set-specific antibody, clone 13E11
On to B3, for which the binding result in assay [5] is given as “no binding”.

B4: 2D5 antibody (murine CD33^PAN antibody) (antibody, V domains shown)
VH: QVQLQQSGAELVRPGASVTLSCKASGYTFTDYDMHWVKQTPVHGLEWIGAIDPETGGTAYNQNFKGKAILTVDKSSRIAYMELRSLTSEDSAVFYCTSDYDYFGVWGTGTTVTVSS
VL: DIVMTQSQKFMSTSVGDRVSVTCKASQNVGTNVVWYHKKPGQSPKGLIYSASDRYSGVPDRFTGSGSGTDFTLTINNVQSEDLAEYFCQQYNIYPYTFGGGTKLEIK
notes: Murine hybridoma antibody
As to B4, the binding result in assay [6] is “binds”.

B5: 1H7 antibody (murine CD33^PAN antibody, hybridoma clone and recombinant 1H7) (antibody, V domains shown)
VH: QVQLQQSGAELVKPGASVKISCKASGYAFSNYWMNWVKQRPGKGLEWIGQINPGDGDTNYNGKFKGKATLTADKSSSTAYMQLSSLTSEDSAVYFCAREDRDYFDYWGQGTTLTVSS
VL: DIQMTQTTSSLSASLGDRVTISCRASQDINYYLNWYQQKPDGTVKLLIYYSSRLHSGVPSRFSGSGSGTDFSLTISNLEQEDIATYFCQQDDALPYTFGGGTKLEIK
notes: Murine antibody (captured on anti-mouse IgG in the Biacore run); both are treated as one molecule; also called clone 1H7
As for B5, the Kd in assay [7] amounted to 5.3 nM; in assay [8], 280 nM; in assay [9], 7.6 nM; in assay [2] it was 0.674 nM; in assay [11], 5.35 nM; in assay [4], 4.2 nM. The binding result in assay [10] is “no binding”.

B6: 6H9 antibody (murine CD33^PAN antibody) (antibody, V domains shown)
VH: EVMLVESGGGLVKPGGSLKLSCAASGFTFSSYTMSWVRQTPEKRLEWVATISGDGGNTYYSDSVKGRFTISRDNAKNTLYLQMSSLRSEDTALYYCARQGTGTDYFDYWGQGTTLTVS
VL: DIQMTQTTSSLSASLGDRVTISCRASQDINIYLNWYQQKPDGTVKLLIYYTSRLHSGVPSRFSGSGSGTDYSLTISNLEQEDIATYFCQQGDTLPWTFGGGTKLEIK
notes: Murine hybridoma antibody
Consider B6, for which the binding result in assay [12] is on record as “binds”.

B7: 9G2 antibody (murine CD33^PAN antibody) (antibody, V domains shown)
VH: EVKLVESEGGLVQPGSSMKLSCTASGFTFSDYYMSWVRQVPEKGLEWVASINYDGGSTYYLDSLKSRFIISRDNTKNILYLQMSSLKSEDTATYYCARDRGDGDYFDYWGQGTTLTVSS
VL: DIQMTQTTSSLSASLGDRVTISCKTSQDIYNYLNWYQQKPDGTVKLLIYYTSRLHSGVPSRFSGGGSGTDYSLTISNLEQEDIATYFCQQGDTLPWTFGGGTKLEIK
notes: Murine hybridoma antibody
On to B7, for which, in assay [12], the binding result was “binds”.

What is called Kd is the constant that tells how readily two partners part at equilibrium.
